In patent US20260001914A1, “MACROCYCLIC PEPTIDES TARGETING KRAS” (Merck Sharp & Dohme LLC, priority 2022, published 2026):
*1 amine or outer side, *2 acyl side, *3 side chain or, on linkers, in order; H or OH if unused. Where a SMILES comes first, the peptide text is derived from it. Bridges are numbered along the chain shown (N, C = ends). [ ]: non-standard residue; d: D form. Phe(4-guanidino) = N=C(N)Nc1ccc(C[C@H](N)C(=O)O)cc1; Ala(pyrimidin-5-yl) = N[C@@H](Cc1cncnc1)C(=O)O; X7 = C[C@H](N[*:1])C12CC(C(=O)[*:2])(C1)C2; Nle(5,5-F2) = CC(F)(F)CC[C@H](N)C(=O)O; Phe(3-Me) = Cc1cccc(C[C@H](N)C(=O)O)c1; X32 = CS(=O)(=O)CCCN(CC(=O)[*:2])[*:1]; Ala(cPent) = N[C@@H](CC1CCCC1)C(=O)O; Phe(2-F) = N[C@@H](Cc1ccccc1F)C(=O)O; NMe3Pal = CN[C@@H](Cc1cccnc1)C(=O)O; X1 = O=C(C12CC(CN[*:1])(C1)C2)[*:2]; X17 = O=C([C@H](CCCCF)N[*:1])[*:2]; Ala(cPr) = N[C@@H](CC1CC1)C(=O)O; NMeF = CN[C@@H](Cc1ccccc1)C(=O)O; PhLac = O=C(O)[C@@H](O)Cc1ccccc1; 3Pal = N[C@@H](Cc1cccnc1)C(=O)O; Ahp(2) = CCCCC[C@H](N)C(=O)O; Cba = N[C@@H](CC1CCC1)C(=O)O; hLeu = CC(C)CC[C@H](N)C(=O)O; αMeC = C[C@](N)(CS)C(=O)O; NMeA = CN[C@@H](C)C(=O)O; Nle = CCCC[C@H](N)C(=O)O

Assays:
[1] = biological target: KRAS-G12D in AsPC-1 cells (UniProt P01116); experiment: cell-based or functional assay
[2] = biological target: Biotin-labeled KRAS-G12D protein (UniProt P01116-2 1-169, limits assumed, biotin label (site not stated); loaded with BODIPY-GDP); experiment: cell-based or functional assay
[3] = biological target: phosphorylation levels of ERK1/2 in AsPC-1 (homozygous KRAS-G12D) cells (Homo sapiens, UniProt P01116, G12D); experiment: Cellular phospho-ERK assay in AsPC-1 cells (Alpha Screen), assay medium without fetal bovine serum; assay type: cell-based; conditions: phospho-ERK AlphaScreen, 18 h;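 further: signal taken as phospho-ERK over total ERK per well, both detected in one multiplex bead assay, EC50 from four-parameter logistic fit of dose-response curves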
Description: Assay plate was incubated at 37° C. 5% CO2 for the indicated length of time. […] Phosphorylated ERK and total ERK levels were detected by Alpha SureFire Ultra Multiplex pERK kit (PerkinElmer MPSU-PTERK) using 5 μL, acceptor bead mix and 5 μL donor bead mix, both prepared following the manufacturer's protocol. Plates were sealed using aluminum sealing tape (Costar 07-200-683) during incubation at ambient temperature with constant shaking at 300 rpm for 1 h (both acceptor and donor). Assay plates were read on a Envision Xcite Multilabel Reader (PerkinElmer 1040900) at ambient temperature, with emission at 535 nm (Total ERK) and emission at 615 nm (Phospho ERK). Ratio of pERK vs total ERK in each well was used as the final readout. Dose response curves and EC50 were analyzed using a 4-parameter logistic equation in GraphPad Prism software.

| Compound | AlphaScreen @18 h, EC50 [1] [nM] | SOS assay EC50 [2] [nM] | EC50 [3] [nM] |
| --- | --- | --- | --- |
| cyclo(FLac-NMeA-3Pal-Nle-Phe2F-hL-NMe3Pal-amBCP) (peptide) | 4650 | 2.17 | – |
| cyclo(FLac-NMeNvalmid-3Pal-Nle-Phe2F-Nle-NMe3Pal-c3amCblc) (peptide) | > 50800 | 758 | – |
| cyclo(FLac-NMeA-4F3Pal-Nle-2Pal6F-Nle-NMeF-amBCP) (peptide) | > 50800 | 870 | – |
| cyclo(FLac-R-3Pal-Nle-Phe2F-Nle-NMeF-amBCP) (peptide) | 39400 | 20.7 | – |
| cyclo(FLac-NMeNvalmid-4F3Pal-Nle-Phe2F-Nle-NMeF-amBCP) isomer 2 (peptide) | > 50800 | 69.7 | – |
| cyclo(FLac-NMeA-PyrimAla-Nle-Phe2F-Nle-NMePhe4Me-amBCP) (peptide) | 223 | 19.1 | – |
| cyclo(FLac-NMeA-PyrimAla-L-Phe2F-Nle-NMe3Pal-amBCP) (peptide) | > 50800 | 4.38 | – |
| cyclo(FLac-NMeA-PyrimAla-Nle-Phe2F-Nlecalken3Pal-amBCP) (peptide) | 11200 | 590 | – |
| cyclo(FLac-NMeA-PyrimAla-cBuA-Phe2F-hL-NMeF-amBCP) (peptide) | 330 | 6.47 | – |
| cyclo(FLac-NMeA-PyrimAla-NleF-Phe2F-NleF-NMeF-amBCP) (peptide) | 3720 | 37.4 | – |
| cyclo(FLac-R-3Pal-cBuA-TyrOMe-Ahp-NMeF-amBCP) (peptide) | > 50800 | 10.8 | – |
| cyclo(FLac-NMeA-PyrimAla-Nle-Phe2F-hL-NMeF-amBCP) (peptide) | 1110 | 7.87 | – |
| cyclo(FLac-NMeA-PyrimAla-cBuA-Phe2F-hcPrA-NMeF-amBCP) (peptide) | 437 | 4 | – |
| cyclo(4F3Pal-NMeA-3Pal-Nle-Phe2F-Nle-NMe3Pal-amBCP) (peptide) | > 50800 | 1780 | – |
| cyclo(F-NMeA~3Pal-Nle-Phe2F-Nle-NMe3Pal-amBCP) (peptide) | > 50800 | 313 | – |
| cyclo(FLac-NMeNvalmid-PyrimAla-Nle-Phe2F-Nle-NMe3Pal-amBCP) (peptide) | > 50800 | 27.2 | – |
| cyclo(FLac-NMeS-PyrimAla-Nle-Phe2F-Nle-NMe3Pal-amBCP) (peptide) | > 50800 | 375 | – |
| cyclo(1Nal-R-K-Nle-Phe3COOH-Nle-NMeF-Cysteamine-C1Ac) (peptide) | > 50800 | 2120 | – |
| cyclo(FLac-NMeA-PyrimAla-Leu3F-Phe2F-hL-NMeF-amBCP) (peptide) | 7730 | 114 | – |
| cyclo(FLac-AlaCN-3Pal-Nle-Phe2F-Nle-NMe3Pal-amBCP) (peptide) | > 50800 | 3750 | – |

| Compound | AlphaScreen @18 h, EC50 [1] [nM] | SOS assay EC50 [2] [nM] | EC50 [3] [nM] |
| --- | --- | --- | --- |
| cyclo(FLac-NMeA-PyrimAla-cPeA-Phe2F-Nle-NMe3Pal-amBCP) (peptide) | 17400 | 22.3 | – |
| cyclo(FLac-NMeA-PyrimAla-Nle-Phe2F-Nle-NMe3Pal-SMeamBCP) (peptide) | 23400 | 33.5 | – |
| cyclo(FLac-NMeA-PyrimAla-Nle-Phe2F-Nle-NMeYOMe-amBCP) (peptide) | 439 | 11 | – |
| cyclo(FLac-NMeA-PyrimAla-cPrA-Phe2F-Hag-NMeHag-amBCP) (peptide) | 41200 | 225 | – |
| cyclo(CPhe-NMeA-PyrimAla-cPrA-Phe2F-Nle3F2-NMeF-MeOximamBCP) isomer 2 (peptide) | 128 | 1.7 | – |
| cyclo(FLac-NMeA-3Pal-NvaF-Phe2F-Nle-NMe3Pal-amBCP) (peptide) | > 50800 | 35.1 | – |
| cyclo(4Me3Pal-NMeA-3Pal-Nle-Phe2F-Nle-NMe3Pal-amBCP) (peptide) | > 50800 | 2890 | – |
| cyclo(F-NMeR-3Pal-Nle-TyrOMe-LysN3-NMeF-tamcPr) (peptide) | > 50800 | 224 | – |
| cyclo(FLac-NMeA-PyrimAla-cBuA-Phe2F-Nle-NMe3Pal-amBCP) (peptide) | 45000 | – | – |
| cyclo(FLac-NMeA-PyrimAla-cBuA-Phe26F2-hL-NMeF-amBCP) (peptide) | 356 | – | – |
| cyclo(F-NMeA-3Pal-Nle-Phe2F-Nle-NMeF-aMeC1-C1Ac) (peptide) | 21000 | – | – |
| CCCCC[C@@H]1NC(=O)[C@H](Cc2ccc(OC)cc2)NC(=O)[C@H](CC2CCC2)NC(=O)[C@H](Cc2ccc(NC(=N)N)cc2)NC(=O)CN(CCCS(C)(=O)=O)C(=O)[C@H](Cc2ccccc2)NC(=O)CSC[C@@](C)(C(N)=O)NC(=O)[C@H](Cc2ccccc2)N(C)C1=O [compound 389, cyclo(F-Mspg-Phe4Gn-cBuA-TyrOMe-Ahp-NMeF-aMeCl-ClAc)] ({CH2CO}-F[X32][Phe(4-guanidino)][Cba]Y(Me)[Ahp(2)][NMeF][αMeC]-NH2; thioether N-8) | – | – | > 50800 |
| CCCC[C@@H]1NC(=O)[C@H](Cc2cncnc2)NC(=O)[C@H](C)N(C)C(=O)[C@H](Cc2ccccc2)OC(=O)C23CC(CNC(=O)[C@H](Cc4ccccc4)N(C)C(=O)[C@H](CCCCF)NC(=O)[C@H](Cc4ccccc4F)NC1=O)(C2)C3 [compound 131, cyclo(FLac-NMeA-PyrimAla-Nle-Phe2F-NleF-NMeF-amBCP)] (cyclo([NMeA][Ala(pyrimidin-5-yl)][Nle][Phe(2-F)][X17][NMeF][X1][PhLac])) | – | – | 2330 |
| CCCC[C@@H]1NC(=O)[C@H](Cc2cccnc2)NC(=O)[C@H](C)N(C)C(=O)[C@H](Cc2ccccc2)OC(=O)C23CC(CNC(=O)[C@H](Cc4ccccc4)N(C)C(=O)[C@H](CCCC)NC(=O)[C@H](Cc4ccccc4F)NC1=O)(C2)C3 [compound 236, cyclo(FLac-NMeA-3Pal-Nle-Phe2F-Nle-NMeF-amBCP)] (cyclo([3Pal][Nle][Phe(2-F)][Nle][NMeF][X1][PhLac][NMeA])) | – | – | 1440 |
| CCCCC[C@@H]1NC(=O)[C@H](Cc2ccc(OC)cc2)NC(=O)[C@H](CC2CCC2)NC(=O)[C@H](Cc2ccn(C)n2)NC(=O)[C@H](CCCNC(=N)N)NC(=O)[C@H](Cc2ccccc2)NC(=O)CSC[C@@](C)(C(N)=O)NC(=O)[C@H](Cc2ccccc2)N(C)C1=O [compound 362, cyclo(F-R-MePyzAla-cBuA-TyrOMe-Ahp-NMeF-aMeCl-ClAc)] | – | – | > 50800 |
| CC(C)CC[C@@H]1NC(=O)[C@H](Cc2ccccc2F)NC(=O)[C@H](CC2CCCC2)NC(=O)[C@H](Cc2cncnc2)NC(=O)[C@H](C)N(C)C(=O)[C@H](Cc2ccccc2)OC(=O)C23CC(CNC(=O)[C@H](Cc4ccccc4)N(C)C1=O)(C2)C3 [compound 135, cyclo(FLac-NMcA-PyrimAla-cPeA-Phe2F-hL-NMeF-amBCP)] (cyclo([Ala(cPent)][Phe(2-F)][hLeu][NMeF][X1][PhLac][NMeA][Ala(pyrimidin-5-yl)])) | – | – | 285 |
| CCCC[C@@H]1NC(=O)[C@H](Cc2cncnc2)NC(=O)[C@H](C)N(C)C(=O)[C@H](Cc2ccccc2)OC(=O)C23CC(C2)(C3)[C@H](C)NC(=O)[C@H](Cc2cccnc2)N(C)C(=O)[C@H](CCCC)NC(=O)[C@H](Cc2ccccc2F)NC1=O [compound 121, cyclo(FLac-NMeA-PyrimAla-Nle-Phe2F-Nle-NMe3Pal-SMeamBCP)] (cyclo([NMe3Pal][X7][PhLac][NMeA][Ala(pyrimidin-5-yl)][Nle][Phe(2-F)][Nle])) | – | – | 23400 |
| C[C@H]1C(=O)N[C@@H](Cc2cncnc2)C(=O)N[C@@H](CC2CC2)C(=O)N[C@@H](Cc2ccccc2F)C(=O)N[C@@H](CCC(C)(F)F)C(=O)N(C)[C@@H](Cc2ccccc2)C(=O)NCC23CC(C2)(C3)C(=O)O[C@@H](Cc2ccccc2)C(=O)N1C [compound 276, cyclo(FLac-NMeA-PyrimAla-cPrA-Phe2F-Nle3F2-NMeF-amBCP)] (cyclo([Ala(cPr)][Phe(2-F)][Nle(5,5-F2)][NMeF][X1][PhLac][NMeA][Ala(pyrimidin-5-yl)])) | – | – | 666 |
| CCCC[C@@H]1NC(=O)[C@H](Cc2cccnc2)NC(=O)[C@H](C)N(C)C(=O)[C@H](Cc2cccc(C)c2)NC(=O)C23CC(CNC(=O)[C@H](Cc4cccnc4)N(C)C(=O)[C@H](CCCC)NC(=O)[C@H](Cc4ccccc4F)NC1=O)(C2)C3 [compound 166, cyclo(Phe3Me-NMeA-3Pal-Nle-Phe2F-Nle-NMe3Pal-amBCP)] (cyclo([3Pal][Nle][Phe(2-F)][Nle][NMe3Pal][X1][Phe(3-Me)][NMeA])) | – | – | 32300 |
| CCCCC[C@@H]1NC(=O)[C@H](Cc2ccc(OC)cc2)NC(=O)[C@H](CC2CCC2)NC(=O)[C@H](Cc2cnn(C)c2)NC(=O)[C@H](CCCNC(=N)N)NC(=O)[C@H](Cc2ccccc2)NC(=O)CSC[C@@](C)(C(N)=O)NC(=O)[C@H](Cc2ccccc2)N(C)C1=O [compound 372, cyclo(F-R-Ala4PyzlMe-cBuA-TyrOMe-Ahp-NMeF-aMeCl-ClAc)] | – | – | > 50800 |
